From article PMC11929898 (Scientific Reports, 2025)

Biological target: SMC3 (mouse (endogenous in mouse ES cells), UniProt Q9CW03 1-1217)
Test: co-IP

Chain of SMC3 (Q9CW03 whole entry): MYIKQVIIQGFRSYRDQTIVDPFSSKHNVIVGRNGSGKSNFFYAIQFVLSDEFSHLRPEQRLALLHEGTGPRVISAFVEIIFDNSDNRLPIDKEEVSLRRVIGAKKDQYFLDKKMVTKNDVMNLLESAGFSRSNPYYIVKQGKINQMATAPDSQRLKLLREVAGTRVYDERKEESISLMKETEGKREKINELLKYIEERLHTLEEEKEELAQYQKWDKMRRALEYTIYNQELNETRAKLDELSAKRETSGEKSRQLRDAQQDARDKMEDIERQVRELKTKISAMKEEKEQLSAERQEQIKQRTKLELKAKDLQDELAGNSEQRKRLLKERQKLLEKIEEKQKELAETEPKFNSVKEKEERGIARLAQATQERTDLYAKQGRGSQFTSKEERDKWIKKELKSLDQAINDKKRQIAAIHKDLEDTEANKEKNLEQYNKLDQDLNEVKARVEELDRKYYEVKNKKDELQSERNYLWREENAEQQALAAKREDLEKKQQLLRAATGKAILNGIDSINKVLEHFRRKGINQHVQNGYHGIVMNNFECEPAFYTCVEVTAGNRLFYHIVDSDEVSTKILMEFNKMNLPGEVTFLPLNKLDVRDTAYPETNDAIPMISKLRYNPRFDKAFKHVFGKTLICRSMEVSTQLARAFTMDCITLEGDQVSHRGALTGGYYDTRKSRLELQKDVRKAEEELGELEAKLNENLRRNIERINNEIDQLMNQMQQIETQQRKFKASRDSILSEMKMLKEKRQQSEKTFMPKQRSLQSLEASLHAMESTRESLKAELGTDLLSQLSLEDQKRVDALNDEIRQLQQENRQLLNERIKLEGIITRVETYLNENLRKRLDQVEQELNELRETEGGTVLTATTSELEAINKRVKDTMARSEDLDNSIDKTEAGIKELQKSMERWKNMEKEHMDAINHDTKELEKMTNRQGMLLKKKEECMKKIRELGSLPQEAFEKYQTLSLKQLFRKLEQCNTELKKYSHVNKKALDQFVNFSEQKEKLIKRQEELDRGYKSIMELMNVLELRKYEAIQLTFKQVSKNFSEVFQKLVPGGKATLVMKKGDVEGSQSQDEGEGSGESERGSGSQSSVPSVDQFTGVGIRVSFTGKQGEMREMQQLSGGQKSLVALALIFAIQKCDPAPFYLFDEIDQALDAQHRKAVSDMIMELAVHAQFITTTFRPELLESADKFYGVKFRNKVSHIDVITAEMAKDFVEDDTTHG

fold change of co-IP with siRad21 against siCtrl: 1.92 fold
B1: REC8 (natural protein)
chain: MFYYPNVLQRHTGCFATIWLAATRGSRLVKREYLNVNVVKTCEEILNYVLVRVQPPVAGLPRPRFSLYLSAQLQIGVIRVYFQQCQYLVEDIQHILEHLHRAQLRIRIDMEEADLPSLLLPNCLAMMETLEDAPEPFFGKMSVDPRLPSPFDIPQIRHLLEAATPEKTRKETLPEATPDPRKPDRTLATVQSPEVITLQEAEPIRMLQIEGEQDLPEISRGDLELLIAEKDDAILLEERQRGRLLRQRRASLPLDESREEPRALEGAGLVSALSPPAPAQVEGIQEALPGQVFPPEVQKMTGWEPGALLTEVTPPQELRLPAPPSTEKRLPSLQRPLPRRHRRRQLLFWDKETQISREKFEEQLQTGAHCWEYPVAQPPKRMLTSPAELFRTPTLSGWLPPELLGLWTHCAQVPQRMLRQRPQLETEETVEEERAADEEERRKTEALSEIEVLREAQEPSGPLMLSSELSLEAAEDEKSRTSLIPPEWWAWSEEGQPEPPALPMLPELPEVPMEMPPRPELSSEAVLRAVALKLQANKELDFSSLVPPLSPRKLASRVFYLLLVLSTQKILLVEQQKPYGPLLIRPGPKFP
